This is an account of results in article PMC8086144, “A novel peptide antagonist of the human growth hormone receptor” (The Journal of Biological Chemistry, 2021).

In data set [1] the target is T1, hPRLR (Homo sapiens, UniProt P16471).
T1 construct: T84 cells express high levels of hPRLR relative to hGHR (>1300:1); host or cells: T84 (human colon cancer), MALME-3M (human melanoma)
T1 sequence (P16471 25-622): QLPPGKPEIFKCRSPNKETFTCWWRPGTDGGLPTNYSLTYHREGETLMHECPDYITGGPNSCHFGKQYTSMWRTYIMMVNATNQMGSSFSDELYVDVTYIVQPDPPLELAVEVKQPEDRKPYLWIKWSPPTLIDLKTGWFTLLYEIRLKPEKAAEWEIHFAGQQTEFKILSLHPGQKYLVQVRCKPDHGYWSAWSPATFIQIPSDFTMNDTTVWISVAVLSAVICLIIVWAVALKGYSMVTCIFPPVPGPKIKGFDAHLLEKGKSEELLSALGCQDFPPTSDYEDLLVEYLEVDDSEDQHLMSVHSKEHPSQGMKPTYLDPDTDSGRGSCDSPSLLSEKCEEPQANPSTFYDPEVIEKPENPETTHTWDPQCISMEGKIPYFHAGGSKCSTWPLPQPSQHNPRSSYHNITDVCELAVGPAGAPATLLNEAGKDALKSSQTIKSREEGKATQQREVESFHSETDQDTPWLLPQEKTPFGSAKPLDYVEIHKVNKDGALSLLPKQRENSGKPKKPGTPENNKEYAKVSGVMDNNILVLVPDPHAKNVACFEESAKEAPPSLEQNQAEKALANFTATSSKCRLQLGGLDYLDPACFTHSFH
Briefly: hGH-mediated pSTAT5 in T84 cells, Western blot. Format: cell-based. The following applies: 50 nM inhibitor with 2.5 nM hGH, 20 min. On the procedure: SK-MEL-28, MALME-3M, and T84 cells were grown and maintained in Eagle's Minimal Essential Medium. IM9 and L cells were grown in RPMI-1640 media and Dulbecco's modified Eagle's medium, respectively. All growth media was supplemented with 10% fetal bovine serum and 1× antibiotic-antimycotic […] solution. Cells were grown at 37 °C under a 5% CO2 atmosphere in a humidified incubator, and growth media was replaced every 48 h during incubation. No hGH was present in or added to the growth media unless specifically indicated. […]
Following treatment, the cells were harvested at the indicated time points, and the total protein was extracted. […] Sample protein concentration was quantified using a Bradford assay with bovine serum albumin as the protein standard. Absorbance at 595 nm was measured using a Spectramax 250 multimode plate reader (Molecular Devices) and processed using SoftmaxPro v4.7.1 software.
Cytosolic fractions from treated cells were thawed on ice, and 80 μg protein was loaded onto polyacrylamide gels for separation by SDS-PAGE. […] Chemiluminescence signals were detected using a GelDoc (BioRad) fluorescence imager. […] Percent inhibition was then measured by subtracting the pSTAT5 band intensity in each lane from the pSTAT5 band intensity of hGH-treated samples. […]
(In general: Immunoblotting shows a protein as a band on a membrane.)

Data set [2] addresses T2, trypsin (bovine pancreas) (Bos taurus, UniProt P00760).
T2 construct: purchased Sigma-Aldrich; host or cells: bovine pancreas
T2 sequence (P00760 24-246): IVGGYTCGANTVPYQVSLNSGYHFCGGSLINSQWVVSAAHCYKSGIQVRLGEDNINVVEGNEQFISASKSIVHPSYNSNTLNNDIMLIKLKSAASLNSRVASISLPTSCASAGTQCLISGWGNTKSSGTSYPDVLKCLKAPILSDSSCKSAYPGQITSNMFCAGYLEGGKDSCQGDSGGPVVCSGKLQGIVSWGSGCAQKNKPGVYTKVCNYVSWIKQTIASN
The experiment in a line: Trypsin degradation of hGH and pegvisomant (HPLC and Western blot). Format: in vitro ADME. The following applies: 4 μg/ml trypsin in digestion buffer pH 7.8, 37 °C, up to 8 h, 25 μg/ml protein. On the procedure:
(§1) The samples were then incubated at 95 °C for 5 min before being cooled on ice and stored at −80 °C. […] Following separation, the proteins were transferred to polyvinylidine difluoride membranes and subjected to Western blot analysis (vide infra). The fraction of intact protein was quantified by measuring the integrated density of each band contained within regions of the gel corresponding to “intact” or “degraded” proteins. […] These reactions were allowed to incubate at 37 °C for up to 8 h, with samples removed at selected timepoints for analysis. Following incubation, the samples were either mixed with 5× Laemmli loading buffer and subjected to SDS-PAGE for Western blot analysis (Fig. S5) or directly injected onto a C18 reversed-phase column for analysis by HPLC as described above for the S1H peptide (Fig. S4).

Data set [3] is described as follows: Stability of hGH and pegvisomant in human serum (Western blot). It is filed as in vitro ADME. The following applies: RPMI with 25% (v/v) heat-inactivated human AB serum, 37 °C, 25 μg/ml protein, SDS-PAGE/Western blot densitometry, average of three experiments. On the procedure:
as §1

For data set [4], the target named is human growth hormone receptor (human (endogenous in SK-MEL-28, MALME-3M, IM9)) (UniProt P10912).
human growth hormone receptor (human (endogenous in SK-MEL-28, MALME-3M, IM9)), sequence (P10912 19-638): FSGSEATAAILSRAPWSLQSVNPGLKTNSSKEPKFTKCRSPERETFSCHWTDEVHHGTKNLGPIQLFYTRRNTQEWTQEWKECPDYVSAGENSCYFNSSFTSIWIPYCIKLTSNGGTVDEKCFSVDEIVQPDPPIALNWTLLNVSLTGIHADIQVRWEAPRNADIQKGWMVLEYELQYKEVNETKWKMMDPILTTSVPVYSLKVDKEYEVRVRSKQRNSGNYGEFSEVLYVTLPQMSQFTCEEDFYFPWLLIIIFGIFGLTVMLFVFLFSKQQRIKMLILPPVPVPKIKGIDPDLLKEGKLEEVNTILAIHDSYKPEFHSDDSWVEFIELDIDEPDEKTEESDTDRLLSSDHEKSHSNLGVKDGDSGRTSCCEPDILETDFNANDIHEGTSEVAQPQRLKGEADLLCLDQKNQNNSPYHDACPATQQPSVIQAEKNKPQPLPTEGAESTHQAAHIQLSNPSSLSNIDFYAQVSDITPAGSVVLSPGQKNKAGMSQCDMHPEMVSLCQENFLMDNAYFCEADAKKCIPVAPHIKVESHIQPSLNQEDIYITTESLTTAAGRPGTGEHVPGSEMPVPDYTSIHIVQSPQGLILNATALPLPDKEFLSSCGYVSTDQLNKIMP
Data set [5] addresses T3, human prolactin receptor (human (endogenous in T84, MALME-3M)) (UniProt P16471).
T3 sequence: T1 sequence (P16471 25-622)

Data set [6] deals with human growth hormone receptor (human (endogenous in SK-MEL-28, MALME-3M, IM9)) (UniProt P10912). The source holds these as a separate data set.
The target in data set [7] is T4, mouse GHR (mouse (endogenous in L fibroblasts)) (UniProt P16882).
T4 sequence: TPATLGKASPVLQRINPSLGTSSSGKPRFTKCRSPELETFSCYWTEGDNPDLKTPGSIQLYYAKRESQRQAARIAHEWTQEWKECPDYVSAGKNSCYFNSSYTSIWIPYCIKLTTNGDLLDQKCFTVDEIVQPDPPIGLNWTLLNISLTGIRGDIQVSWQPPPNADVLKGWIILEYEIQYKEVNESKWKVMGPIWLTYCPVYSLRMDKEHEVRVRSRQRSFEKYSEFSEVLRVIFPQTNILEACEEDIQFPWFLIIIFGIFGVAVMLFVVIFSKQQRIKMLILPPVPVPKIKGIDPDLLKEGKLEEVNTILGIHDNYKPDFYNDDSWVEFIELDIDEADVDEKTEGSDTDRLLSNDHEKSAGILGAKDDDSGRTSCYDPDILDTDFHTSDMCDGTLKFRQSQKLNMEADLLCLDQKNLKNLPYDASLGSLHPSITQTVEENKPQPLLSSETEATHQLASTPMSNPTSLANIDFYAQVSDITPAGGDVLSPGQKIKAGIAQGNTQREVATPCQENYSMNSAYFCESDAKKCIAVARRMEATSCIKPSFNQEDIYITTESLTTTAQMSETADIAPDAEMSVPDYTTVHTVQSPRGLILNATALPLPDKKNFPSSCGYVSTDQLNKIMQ

Take pegvisomant [reference compound]: in data set [1], the “suppression of hGH-mediated phosphorylation of STAT5” value turned out to be 27%. The “time to full degradation by trypsin” value in data set [2] was found to be 4 h. Moreover, in data set [3], the “protein remaining intact after 48 h in human serum” value stood at 76%.

B1: S1H peptide (site 1-binding helix) (peptide)
peptide: Ac-YIPKEQKYSFLQNPQT-NH2
In the case of B1, the inhibition of hGH-induced pSTAT5 (Western blot) in MALME-3M cells treated with 2.5 nM hGH and 50 nM S1H; pair blocked: hGH with hGHR in data set [4] stood at 40%. The inhibition of hPRL-induced pSTAT5 (Western blot) in MALME-3M cells treated with 2.5 nM hPRL and S1H; pair blocked: hPRL with hPRLR in data set [5] was 49%. In addition, in data set [6], the suppression of hGH-mediated pSTAT5 (Western blot) in IM9 cells co-treated with 2.5 nM hGH and 200 nM S1H; pair blocked: hGH with hGHR turned out to be 67%; the suppression of hGH-mediated pSTAT5 (Western blot) in MALME-3M cells co-treated with 2.5 nM hGH and 200 nM S1H; pair blocked: hGH with hGHR came out at 56%; the suppression of hGH-mediated pSTAT5 (Western blot) in SK-MEL-28 cells co-treated with 2.5 nM hGH and S1H, 100 nM (46%) to 200 nM (67%); pair blocked: hGH with hGHR was 67%. The suppression of hGH-mediated pSTAT5 (Western blot) in mouse L fibroblasts co-treated with GH and 200 nM S1H; pair blocked: GH with the GHR of the L cells in data set [7] is 36%.
